Data on twelve molecules can be found in patent US11629364B2, “Methods for synthesizing anticoagulant polysaccharides” (OPTIMVIA, LLC, priority 2019, dated 2023).

To fix the notation:
B1: SEQ ID NO: 18: engineered aryl sulfate-dependent 6OST enzyme, mutant of isoform 1 of the mouse 6OST enzyme (protein)
chain: MKYYFPVRELERSLRFDMKGDDVIVFLHIGHTGGTTFGRHLVQNVRLEVPCDCRPGQKKCTCYRPNRRETWLFSRFSTGWSCGTNADWTELTNCVPGVLDRRDPAGLRSPRKFYYITLLRDPVSRYLGGWRHHQRGGTNKTSLHMCDGRTPTPEELPPCYEGTDWSGCTLQEFMDCPYNLANNRQVRMLADLSLVGCYNLSFIPESKRAQLLLESAKKNLRGMAFFGLTEFQRKTQYLFERTFNLKFIRPFMQYNSTRAGGVEVDEDTIRHIEELNDLDMQLYDYAKDLFQQRYQYKRQLERREQRLRNREE
modifications: Amino acid sequence encoding for engineered arylsulfate-dependent 6-O-sulfotransferase variant 1
notes: engineered aryl sulfate-dependent 6OST enzyme, mutant of isoform 1 of the mouse 6OST enzyme
B2: SEQ ID NO: 20: engineered aryl sulfate-dependent 6OST enzyme, mutant of isoform 1 of the mouse 6OST enzyme (protein)
chain: B1 chain with N85R, G128S, G129H, H133T, T138A, S142G, A181G
modifications: Amino acid sequence encoding for engineered arylsulfate-dependent 6-O-sulfotransferase variant 2
notes: as for B1
B3: SEQ ID NO: 22: engineered aryl sulfate-dependent 6OST enzyme, mutant of isoform 1 of the mouse 6OST enzyme (protein)
chain: B1 chain with T84S, N85H, G128S, T138A, A181G
modifications: Amino acid sequence encoding for engineered arylsulfate-dependent 6-O-sulfotransferase variant 3
notes: as for B1
B4: SEQ ID NO: 48: mutant of the full-length pig 6OST enzyme, SEQ ID NO: 18 mutations (protein)
chain: MRRRRAGSRTMVERASKFVLVVAGSACFMLILYQYAGPGLSLGAPGGRAPPDDLDLFPTPDPHYEKKYYFPVRELERSLHFDMKGDDVIVFLHIGHTGGTTFGRHLVQNVRLEVPCDCRPGQKKCTCYRPNRRETWLFSRFSTGWSCGTNADWTELTNCVPGVLDRRDPAALRTPRKFYYITLLRDPVSRYLGGWRHHQRGGTNKTSLHMCDGRTPTPEELPPCYEGTDWSGCTLQEFMDCPYNLANNRQVRMLADLSLVGCYNLSFIPEGKRSQLLLESAKKNLRGMAFFGLTEFQRKTQYLFERTFNLKFIRPFMQYNSTRAGGVEVGEDTIRRIEELNDLDMQLYDYARDLFQQRYQYKRQLERRQQRLRSREERLLHRAKEAPPRGDTEEPGRVPTEDYMSHIIEKW
modifications: Amino acid sequence encoding for engineered arylsulfate-dependent 6-O-sulfotransferase variant 9
B5: SEQ ID NO: 50: mutant of the full-length pig 6OST enzyme, SEQ ID NO: 22 mutations (protein)
chain: B4 chain with T149S, N150H, G193S, T203A, A246G
modifications: Amino acid sequence encoding for engineered arylsulfate-dependent 6-O-sulfotransferase variant 11
B6: SEQ ID NO: 49: mutant of the full-length pig 6OST enzyme, SEQ ID NO: 20 mutations (protein)
chain: B4 chain with N150R, G193S, G194H, H198T, T203A, S207G, A246G
modifications: Amino acid sequence encoding for engineered arylsulfate-dependent 6-O-sulfotransferase variant 10
B7: SEQ ID NO: 46: mutant of residues 67-377 of the pig 6OST enzyme, SEQ ID NO: 20 mutations (protein)
chain: MKYYFPVRELERSLHFDMKGDDVIVFLHIGHTGGTTFGRHLVQNVRLEVPCDCRPGQKKCTCYRPNRRETWLFSRFSTGWSCGTRADWTELTNCVPGVLDRRDPAALRTPRKFYYITLLRDPVSRYLSHWRHTQRGGANKTGLHMCDGRTPTPEELPPCYEGTDWSGCTLQEFMDCPYNLGNNRQVRMLADLSLVGCYNLSFIPEGKRSQLLLESAKKNLRGMAFFGLTEFQRKTQYLFERTFNLKFIRPFMQYNSTRAGGVEVGEDTIRRIEELNDLDMQLYDYARDLFQQRYQYKRQLERRQQRLRSREE
modifications: Amino acid sequence encoding for engineered arylsulfate-dependent 6-O-sulfotransferase variant 7
B8: SEQ ID NO: 47: mutant of residues 67-377 of the pig 6OST enzyme, SEQ ID NO: 22 mutations (protein)
chain: B7 chain with T84S, R85H, H129G, T133H, G142S
modifications: Amino acid sequence encoding for engineered arylsulfate-dependent 6-O-sulfotransferase variant 8
B9: SEQ ID NO: 45: mutant of residues 67-377 of the pig 6OST enzyme, SEQ ID NO: 18 mutations (protein)
chain: B7 chain with R85N, S128G, H129G, T133H, A138T, G142S, G181A
modifications: Amino acid sequence encoding for engineered arylsulfate-dependent 6-O-sulfotransferase variant 6
B10: SEQ ID NO: 59: full-length mutant of isoform 3 of the mouse 6OST enzyme, SEQ ID NO: 18 mutations (protein)
chain: MDERFNKWLLTPVLTLLFVVIMYQYVSPSCTSSCTNFGEQLRSGEARPPAVPSPARRAQAPLDEWERRPQLPPPPRGPPEGSRGVAAPEDEDEDPGDPEEEEEEEEEEPDPEAPENGSLPRFVPRFNFTLKDLTRFVDFNIKGRDVIVFLHIGHTGGTTFGRHLVKNIRLEQPCSCKAGQKKCTCHRPGKKETWLFSRFSTGWSCGTNADWTELTNCVPAIMEKKDCPRNHSHTRNFYYITMLRDPVSRYLGGWKHHQRGGTNKTSLHMCDGRSPTPDELPTCYPGDDWSGVSLREFMDCSYNLANNRQVRMLADLSLVGCYNLTFMNESERNTILLQSAKNNLKNMAFFGLTEFQRKTQFLFERTFNLKFISPFTQVNITRASNVDINDGARQHIEELNFLDMQLYEYAKDLFQQRYHHTKQLEHQRDRQKRREERRLQREHRAHRWPKEDRAMEGTVTEDYNSQVVRW
modifications: Amino acid sequence encoding for engineered arylsulfate-dependent 6-O-sulfotransferase variant 12
B11: SEQ ID NO: 60: full-length mutant of isoform 3 of the mouse 6OST enzyme, SEQ ID NO: 20 mutations (protein)
chain: B10 chain with N208R, G252S, G253H, H257T, T262A, S266G, A305G, V378F
modifications: Amino acid sequence encoding for engineered arylsulfate-dependent 6-O-sulfotransferase variant 13
B12: SEQ ID NO: 61: full-length mutant of isoform 3 of the mouse 6OST enzyme, SEQ ID NO: 22 mutations (protein)
chain: B10 chain with T207S, N208H, G252S, T262A, A305G, V378F
modifications: Amino acid sequence encoding for engineered arylsulfate-dependent 6-O-sulfotransferase variant 13

Changes are numbered by the printed parent chain.

One series in a line: 6OST activity: 6-O sulfated products detected by LCMS after lyase digestion. The series is classed as biochemical. To be noted: NCS or PNS as sulfo donor; D0S6 and D2S6 disaccharides. As to the method:
A study was conducted in accordance with embodiments of the present disclosure to confirm 6OST activity of enzymes comprising the amino acid sequence of SEQ ID NO: 18, SEQ ID NO: 20, or SEQ ID NO: 22 by detecting the presence of 6-O sulfated polysaccharide products as a result of their sulfotransfer reaction, using a similar LCMS procedure as in Example 3, except that the sulfo acceptor polysaccharide was prepared by chemically 6-O desulfating commercially available heparin (CAS code: 9041-08-1, available from Millipore Sigma), according to the procedure provided by Kariya, Y., et al., (2000) J. Biol. Chem. 275 (34):25949-25958).
Consider B1, for which the “6OST sulfotransferase activity by sulfo group donor” value (from here on “6OST sulfotransferase activity”) is “active when NCS was the sulfo group donor”.

For the molecule B2, the “6OST sulfotransferase activity” value is listed as “active when NCS was the sulfo group donor”.

In the case of B3, the “6OST sulfotransferase activity” value is given as “active when PNS was the sulfo group donor”.

Staying with this series, now noted: comparing peak area percentages of D0S6 and D2S6 disaccharides.
Regarding B3, the “relative 6OST activity among engineered enzymes” value was “the most active”.

The same series, now with this note: procedures of Example 4; expected.
With B4, the “6OST activity: N,2,6-HS products by MS” value is “confirm the presence of N,2,6-HS products”.

Turning to B5, the “6OST activity: N,2,6-HS products by MS” value is “confirm the presence of N,2,6-HS products”.

B6: the “6OST activity: N,2,6-HS products by MS” value is given as “confirm the presence of N,2,6-HS products”.

As for B7, the “6OST activity: N,2,6-HS products by MS” value is listed as “confirm the presence of N,2,6-HS products”.

Regarding B8, the “6OST activity: N,2,6-HS products by MS” value is reported as “confirm the presence of N,2,6-HS products”.

For the molecule B9, the “6OST activity: N,2,6-HS products by MS” value was “confirm the presence of N,2,6-HS products”.

As for B10, the “6OST activity: N,2,6-HS products by MS” value is on record as “confirm the presence of N,2,6-HS products”.

As for B11, the “6OST activity: N,2,6-HS products by MS” value is reported as “confirm the presence of N,2,6-HS products”.

As to B12, the “6OST activity: N,2,6-HS products by MS” value is listed as “confirm the presence of N,2,6-HS products”.
